Assay results reported in publication PMC8860585, “TRIM21 suppresses CHK1 activation by preferentially targeting CLASPIN for K63-linked ubiquitination” (Nucleic Acids Research, 2022).

Biological target: T1, HIS-TRIM21 (human, UniProt P19474 1-475)
T1 construct: human TRIM21 cDNA (full length cDNA by the plasmid paragraph) cloned into pET28a; source: bacterially purified (pET28a)
Experiment: pull-down; GST-CLASPIN 301–630aa immobilized on Glutathione Sepharose 4B beads incubated with HIS-TRIM21 for 4 h at 4°C; HIS-TRIM21 by immunoblot
Conditions: both partners purified

T1 sequence (P19474 whole entry): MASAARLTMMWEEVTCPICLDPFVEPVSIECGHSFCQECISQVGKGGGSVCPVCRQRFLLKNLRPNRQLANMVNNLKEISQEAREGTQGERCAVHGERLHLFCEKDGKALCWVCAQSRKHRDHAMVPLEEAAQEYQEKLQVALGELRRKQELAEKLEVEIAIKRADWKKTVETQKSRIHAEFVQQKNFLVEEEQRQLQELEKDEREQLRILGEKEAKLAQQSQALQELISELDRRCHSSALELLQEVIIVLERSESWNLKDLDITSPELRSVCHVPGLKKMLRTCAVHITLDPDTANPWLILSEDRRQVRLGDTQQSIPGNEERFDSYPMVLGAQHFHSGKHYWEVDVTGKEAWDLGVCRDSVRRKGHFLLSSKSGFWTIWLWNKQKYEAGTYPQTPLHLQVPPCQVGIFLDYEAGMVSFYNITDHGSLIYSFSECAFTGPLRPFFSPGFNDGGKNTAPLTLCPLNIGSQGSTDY

binding result: binds
B1: GST-CLASPIN 301–630aa (domain or fragment, human, UniProt Q9HAW4 301-630, looked up)
chain: ALNLPYHMPENKTIHDFFKRKPRPTCHGNAMALLKSSKYQSSHHKEIIDTANTTEMNSDHHSKGSEQTTGAENEVETNALPVVSKETQIITGSDESCRKDLVKNEELEIQEKQKQSDIRPSPGDSSVLQQESNFLGNNHSEECQVGGLVAFEPHALEGEGPQNPEETDEKVEEPEQQNKSSAVGPPEKVRRFTLDRLKQLGVDVSIKPRLGADEDSFVILEPETNRELEALKQRFWKHANPAAKPRAGQTVNVNVIVKDMGTDGKEELKADVVPVTLAPKKLDGASHTKPGEKLQVLKAKLQEAMKLRRFEERQKRQALFKLDNEDGFEE
notes: human CLASPIN F2 region, residues 301–630; also called GST fusion of the CLASPIN F2 region (301–630aa); source: bacterially purified (pGEX4T-1), immobilized on Glutathione Sepharose 4B
